According to patent US20240018502A1:
Residue numbers refer to the chain shown, from its start. In names and notes the source's numbering stands.

B1: ins97aA/F97G/T98L/C122S/Q175M/Q192A/D217I/K224R (enzyme)
chain: VVGGTDADEGEWPWQVSLHALGQGHICGASLISPNWLVSAAHCYIDDRGFRYSDPTQWTAFLGLHDQSQRSAPGVQERRLKRIISHPFFNDGALFDYDIALLELEKPAEYSSMVRPISLPDASHVFPAGKAIWVTGWGHTQYGGTGALILQKGEIRVINQTTCENLLPQMITPRMMCVGFLSGGVDSCAGDSGGPLSSVEADGRIFQAGVVSWGIGCAQRNRPGVYTRLPLFRDWIKENTGV
B2: Q38G/H40R/I41H/D60bN/F97D/F99L/C122S/Q175L/Q192G (enzyme)
chain: VVGGTDADEGEWPWQVSLHALGGGRHCGASLISPNWLVSAAHCYIDNRGFRYSDPTQWTAFLGLHDQSQRSAPGVQERRLKRIISHPFFNDDTLDYDIALLELEKPAEYSSMVRPISLPDASHVFPAGKAIWVTGWGHTQYGGTGALILQKGEIRVINQTTCENLLPQLITPRMMCVGFLSGGVDSCGGDSGGPLSSVEADGRIFQAGVVSWGDGCAQRNKPGVYTRLPLFRDWIKENTGV
B3: Q38Y/I41S/D60bT/F60eR/Y60gW/D96M/F97N/T98G/F99L/C122S/G151N/Q175L (enzyme)
chain: VVGGTDADEGEWPWQVSLHALGYGHSCGASLISPNWLVSAAHCYIDTRGRRWSDPTQWTAFLGLHDQSQRSAPGVQERRLKRIISHPFFNMNGLDYDIALLELEKPAEYSSMVRPISLPDASHVFPAGKAIWVTGWGHTQYGGTNALILQKGEIRVINQTTCENLLPQLITPRMMCVGFLSGGVDSCQGDSGGPLSSVEADGRIFQAGVVSWGDGCAQRNKPGVYTRLPLFRDWIKENTGV
B4: Q38H/I41A/D60bV/F60eR/Y60gW/D96P/ins97aN/F97W/T98G/F99L/C122S/G151H/Q175L/Q192E (enzyme)
chain: VVGGTDADEGEWPWQVSLHALGHGHACGASLISPNWLVSAAHCYIDVRGRRWSDPTQWTAFLGLHDQSQRSAPGVQERRLKRIISHPFFNPWNGLDYDIALLELEKPAEYSSMVRPISLPDASHVFPAGKAIWVTGWGHTQYGGTHALILQKGEIRVINQTTCENLLPQLITPRMMCVGFLSGGVDSCEGDSGGPLSSVEADGRIFQAGVVSWGDGCAQRNKPGVYTRLPLFRDWIKENTGV
B5: Q38H/I41S/D60bT/F60eS/Y60gW/D96F/F97D/ins97aE/T98S/F99L/C122S/G151H/Q175L/Q192A (enzyme)
chain: B4 chain with A26S, V47T, R50S, P91F, W92D, N93E, G94S, E189A
B6: Q38F/I41A/D60bT/F60eG/Y60gW/ins97aE/F97T/T98G/F99L/C122S/Q175L/Q192E (enzyme)
chain: B4 chain with H23F, V47T, R50G, P91D, W92T, N93E, H146G
B7: Q38H/I41S/D60bT/F60eS/Y60gW/ins97aV/F97D/T98P/F99L/C122S/G151H/Q175L (enzyme)
chain: B4 chain with A26S, V47T, R50S, P91D, W92D, N93V, G94P, E189Q
B8: Q38H/I41A/D60bV/F60eT/Y60gW/ins97aE/F97T/T98G/F99L/C122S/Q175L/Q192E (enzyme)
chain: B4 chain with R50T, P91D, W92T, N93E, H146G
B9: Q38H/I41S/D60bT/F60eS/Y60gW/D96K/F97G/ins97aA/T98P/F99L/C122S/G151H/Q175L/Q192D (enzyme)
chain: B4 chain with A26S, V47T, R50S, P91K, W92G, N93A, G94P, E189D
B10: Q38H/I41S/D60bT/F60eS/Y60gW/D96K/F97G/ins97aV/T98P/F99L/C122S/G151H/Q175L (enzyme)
chain: B4 chain with A26S, V47T, R50S, P91K, W92G, N93V, G94P, E189Q
B11: Q38H/I41A/D60bV/F60eR/Y60gW/D96P/ins97aN/F97W/T98G/F99L/C122S/G151N/Q175L/Q192E (enzyme)
chain: B4 chain with H146N
B12: Q38Y/I41A/D60bL/F60eQ/ins97aV/F97D/T98P/F99L/C122S/G151N/Q175M/Q192A (enzyme)
chain: VVGGTDADEGEWPWQVSLHALGYGHACGASLISPNWLVSAAHCYIDLRGQRYSDPTQWTAFLGLHDQSQRSAPGVQERRLKRIISHPFFNDDVPLDYDIALLELEKPAEYSSMVRPISLPDASHVFPAGKAIWVTGWGHTQYGGTNALILQKGEIRVINQTTCENLLPQMITPRMMCVGFLSGGVDSCAGDSGGPLSSVEADGRIFQAGVVSWGDGCAQRNKPGVYTRLPLFRDWIKENTGV
B13: Q38H/I41S/D60bF/F60eV/F97D/ins97aV/T98P/F99L/C122S/G151N/Q175L/Q192A (enzyme)
chain: B12 chain with Y23H, A26S, L47F, Q50V, M170L
B14: Q38H/I41A/D60bV/F60eA/Y60gW/F97T/ins97aE/T98G/F99L/C122S/Q175L/Q192V (enzyme)
chain: B4 chain with R50A, P91D, W92T, N93E, H146G, E189V
B15: Q38H/I41A/D60bV/F60eR/Y60gW/D96I/ins97aN/F97Y/T98G/F99L/C122S/G151H/Q175L/Q192D (enzyme)
chain: B4 chain with P91I, W92Y, E189D
B16: Q38H/I41S/D60bT/F60eS/Y60gW/D96L/ins97aG/F97D/T98N/F99L/C122S/G151H/Q175L/Q192E (enzyme)
chain: B4 chain with A26S, V47T, R50S, P91L, W92D, N93G, G94N
B17: Q38H/I41A/D60bV/F60eR/Y60gW/D96P/ins97aN/F97W/T98G/F99L/C122S/G151H/Q175L/Q192D (enzyme)
chain: B4 chain with E189D
B18: Q38F/I41S/D60bF/F60eR/Y60gF/F97T/ins97aE/T98G/F99L/C122S/G151N/Q175L/Q192V (enzyme)
chain: B4 chain with H23F, A26S, V47F, W52F, P91D, W92T, N93E, H146N, E189V
B19: Q38H/I41S/D60bY/D96Y/ins97aV/F97D/T98P/F99L/L106M/C122S/I136M/Q192G/Q209L/D217T (enzyme)
chain: VVGGTDADEGEWPWQVSLHALGHGHSCGASLISPNWLVSAAHCYIDYRGFRYSDPTQWTAFLGLHDQSQRSAPGVQERRLKRIISHPFFNYDVPLDYDIALMELEKPAEYSSMVRPISLPDASHVFPAGKAMWVTGWGHTQYGGTGALILQKGEIRVINQTTCENLLPQQITPRMMCVGFLSGGVDSCGGDSGGPLSSVEADGRIFLAGVVSWGTGCAQRNKPGVYTRLPLFRDWIKENTGV
B20: Q38H/I41A/D60bV/F60eR/Y60gW/D96S/ins97aR/F97A/T98S/F99L/C122S/G151N/Q175L/Q192T (enzyme)
chain: B4 chain with P91S, W92A, N93R, G94S, H146N, E189T
B21: Q38H/I41A/D60bV/F60eR/Y60gW/D96I/ins97aN/F97Y/T98G/F99L/C122S/G151N/Q175L/Q192D (enzyme)
chain: B4 chain with P91I, W92Y, H146N, E189D
B22: Q38H/I41A/D60bT/F60eH/Y60gW/ins97aE/F97T/T98G/F99L/C122S/Q175L/Q192D (enzyme)
chain: B4 chain with V47T, R50H, P91D, W92T, N93E, H146G, E189D
B23: Q38H/I41A/D60bV/F60eR/Y60gW/ins97aE/F97T/T98G/F99L/C122S/Q175L/Q192D (enzyme)
chain: B4 chain with P91D, W92T, N93E, H146G, E189D
B24: ins97aY/F97G/T98V/C122S/Q175M/Q192S/D217V (enzyme)
chain: B1 chain with A93Y, L94V, A189S, I215V, R222K
B25: Q38H/I41S/D60bS/ins97aV/F97D/T98P/F99L/M117L/C122S/I136T/Q192G/D217I (enzyme)
chain: B19 chain with Y47S, Y91D, M102L, M113L, M132T, L207Q, T215I

Molecular target: human complement protein C3 (human) (UniProt P01024)
Sequence (P01024 23-667, chain 1 of 2): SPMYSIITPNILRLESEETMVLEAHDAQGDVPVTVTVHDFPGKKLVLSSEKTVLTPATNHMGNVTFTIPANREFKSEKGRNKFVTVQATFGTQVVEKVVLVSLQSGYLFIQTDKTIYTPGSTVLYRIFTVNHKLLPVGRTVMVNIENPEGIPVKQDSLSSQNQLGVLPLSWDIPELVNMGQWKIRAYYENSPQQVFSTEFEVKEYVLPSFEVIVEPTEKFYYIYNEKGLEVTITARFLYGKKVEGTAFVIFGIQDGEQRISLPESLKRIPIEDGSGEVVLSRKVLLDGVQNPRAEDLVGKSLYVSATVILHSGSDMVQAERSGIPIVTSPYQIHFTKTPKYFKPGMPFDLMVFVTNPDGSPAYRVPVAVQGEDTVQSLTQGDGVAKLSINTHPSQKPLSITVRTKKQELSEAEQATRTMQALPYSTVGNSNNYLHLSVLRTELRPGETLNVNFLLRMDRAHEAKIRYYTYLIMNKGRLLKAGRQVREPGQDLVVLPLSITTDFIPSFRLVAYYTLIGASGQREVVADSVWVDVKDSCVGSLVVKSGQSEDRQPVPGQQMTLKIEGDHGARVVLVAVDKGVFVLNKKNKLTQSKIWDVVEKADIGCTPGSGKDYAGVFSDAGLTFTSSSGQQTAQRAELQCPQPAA
Sequence (P01024 672-1663, chain 2 of 2): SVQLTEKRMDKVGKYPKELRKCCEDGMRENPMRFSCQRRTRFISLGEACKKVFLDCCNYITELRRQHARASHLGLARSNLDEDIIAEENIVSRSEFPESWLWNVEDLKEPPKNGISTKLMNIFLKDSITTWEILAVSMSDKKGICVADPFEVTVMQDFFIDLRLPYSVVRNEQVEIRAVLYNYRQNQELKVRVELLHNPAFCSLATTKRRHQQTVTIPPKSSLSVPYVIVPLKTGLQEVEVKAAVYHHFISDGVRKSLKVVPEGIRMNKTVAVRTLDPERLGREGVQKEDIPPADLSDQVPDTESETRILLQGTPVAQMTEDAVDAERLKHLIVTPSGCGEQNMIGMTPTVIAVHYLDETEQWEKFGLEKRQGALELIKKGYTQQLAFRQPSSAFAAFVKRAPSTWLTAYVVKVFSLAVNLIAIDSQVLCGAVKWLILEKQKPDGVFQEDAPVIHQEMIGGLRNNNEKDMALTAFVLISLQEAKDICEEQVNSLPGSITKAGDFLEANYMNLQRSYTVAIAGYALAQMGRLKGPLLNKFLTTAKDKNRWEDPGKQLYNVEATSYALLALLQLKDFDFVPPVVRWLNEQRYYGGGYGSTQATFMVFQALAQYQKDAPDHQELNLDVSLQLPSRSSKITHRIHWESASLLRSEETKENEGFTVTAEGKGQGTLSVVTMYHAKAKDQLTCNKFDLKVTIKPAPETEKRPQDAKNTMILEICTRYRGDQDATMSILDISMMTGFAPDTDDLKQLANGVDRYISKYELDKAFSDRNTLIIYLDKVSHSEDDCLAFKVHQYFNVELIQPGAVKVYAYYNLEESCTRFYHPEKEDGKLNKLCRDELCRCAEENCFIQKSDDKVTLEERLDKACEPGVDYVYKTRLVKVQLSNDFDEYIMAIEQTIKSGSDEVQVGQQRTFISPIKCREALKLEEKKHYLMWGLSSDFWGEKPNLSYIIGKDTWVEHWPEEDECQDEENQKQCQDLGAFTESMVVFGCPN
Assay: cell-based or functional assay

Row | Binder | EC50 (nM), cleavage of purified hC3 in vitro
1 | B1 | 0.866 nM
2 | B2 | 0.867 nM
3 | B3 | 1.08 nM
4 | B4 | 1.11 nM
5 | B5 | 1.17 nM
6 | B6 | 1.25 nM
7 | B7 | 1.31 nM
8 | B8 | 1.39 nM
9 | B9 | 1.43 nM
10 | B10 | 1.45 nM
11 | B11 | 1.51 nM
12 | B12 | 1.53 nM
13 | B13 | 1.57 nM
14 | B14 | 1.57 nM
15 | B15 | 1.57 nM
16 | B16 | 1.59 nM
17 | B17 | 1.83 nM
18 | B18 | 1.96 nM
19 | B19 | 1.97 nM
20 | B20 | 2.07 nM
21 | B21 | 2.23 nM
22 | B22 | 2.28 nM
23 | B23 | 2.37 nM
24 | B24 | 2.42 nM
25 | B25 | 2.43 nM
